# Reference: the supplement of paper PMC12042874
# ± gives the uncertainty stated by the source.
# Experiment: amyloid nucleation score (Sup35N fusion, yeast selection) (log enrichment); library NNK3; higher = more nucleation; inactive = no reads after selection
# Procedure, shortened: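 Peptides of 20 random codons, each fused to Sup35N, were expressed in psi-negative yeast. Cells were induced with 100 μM copper sulfate for 24 hours and grown 7 days at 30°C on medium lacking adenine and uracil, and plasmid inserts before and after selection were Illumina-sequenced. Nucleation scores are DiMSum log enrichments of output over input reads, centred on the mode score of non-aggregating sequences, and sequences under 100 input reads were excluded.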
row,Substance,amyloid nucleation score
1,PCRMKLVFFRDE,inactive
2,HCPVSIY,inactive
3,GMDSIWHFDCNLS,0.094 ± 0.81
4,EGYQVFFNDLVLTLVMRVEV,inactive
5,GWMQGVLSELTTTLVMESAR,inactive
6,CDEGSGWILFIRHLLLYWRG,inactive
7,FVKCFNGAFWNEGPFCYLCG,0.331 ± 0.32
8,FDGYCFFYYWLGVWWSTSI,inactive
9,FVMGGGNGGHVGYMCFCEEV,inactive
10,FCGIYCKAINSFAVDLMPWI,inactive
11,PFLCFRIYFSACWINLTLNL,1.78 ± 0.086
12,AVDLV,inactive
13,CFKRLVIIMGGLGAA,inactive
14,LVTETLFYCH,inactive
15,FNVKVVSKSMFYFCSYMPIV,inactive
16,HYNVPL,inactive
17,TCVKMDRRSLAINALLSYYR,inactive
18,GTDSGTRSDNV,0.328 ± 0.63
19,TSERLMVSQITAHILGFHEI,inactive
20,TNMYYSRVANDGIF,inactive
21,MTVTGPQYLPWGLRHNA,inactive
22,IGLFNTNVWKCFDCDTPAMF,inactive
23,ISSFCRGLVAFEPCWFGLEK,inactive
24,GHKVVL,inactive

row,Substance,amyloid nucleation score
1,RWSGHTWTCVQDRMVCICNS,inactive
2,RMFWRYWYSQEMGYDRAIKG,inactive
3,SRACSTHCIFEGTWSG,inactive
4,HRGIVGCLAYMHMNRIVATT,inactive
5,VYSTVF,inactive
6,WSFMLFSVSYYNQGEAVLPA,inactive
7,LVNEKNIRVEVCIAYACQDS,-0.053 ± 0.33
8,SGVYLTNNVWGFLYRATISG,inactive
9,YRSLITLQAIRCGIWFCGLW,inactive
10,PYMITILHFISHATVLNTSV,inactive
11,SPYVYRTWFRTLEYCTRDDM,inactive
12,IPDDDFFLLALSTLN,inactive
13,QDALVSCWKFGAVSDQCDYW,inactive
14,SVLGVSTYSLCSSVNCIFRF,2.74 ± 0.062
15,VMFFDIKIMARFWTPNEL,inactive
16,PGNEEVGTNCMLTSNLTYVH,inactive
17,GHLESVFRSVDTLVSYSS,0.138 ± 0.55
18,LGLRHDICITDRINSGLRGS,inactive
19,SYVPSTMIRMIWIMAFHRGN,-0.024 ± 0.43
20,RVTTMLSFVR,inactive
21,LCATFMNYRVKIWSQLRY,-0.426 ± 0.66
22,GPGQLYLLDM,inactive
23,RVATGVVCMM,inactive
24,LHAWAVVLGFLETP,inactive

row,Substance,amyloid nucleation score
1,AHRRKLKWDNGHCNLRTKFR,inactive
2,YVVSYPVGVRSNTHLLRIWR,inactive
3,ILIEVFLWSCYKYVNC,inactive
4,SKACAVLAYNLVGFEFHFEF,1.69 ± 0.074
5,VGQTCFTIMMVV,inactive
6,SSFFMRIVCMFYLIRKVMKC,inactive
7,ISTCMMFLF,inactive
8,VDSWSRGQVSQLGRSQWADI,0.68 ± 0.31
9,AMCCF,inactive
10,FVNLAGLFGSRGTNLLCLGE,inactive
11,HLYDPVFTKVAPRSSGGYGQ,inactive
12,ECYLEIASDSYINLKFARIE,0.019 ± 0.73
13,MCYFEYNDVNWRVLLLYLCK,inactive
14,MHNHMYISKEMLYNERTLSI,inactive
15,LSSDNCTFPFHRLGGYKQSY,inactive
16,DWVGRYSVSMWILIGRGSLW,inactive
17,YFLICIQVHKSMRNCPFYVS,inactive
18,ICHFTLM,inactive
19,HVTPRKN,inactive
20,FTLLIYCYYLYYRCFCYVVR,inactive
21,YRLYDQLRGYRGLAYLTYVL,-0.187 ± 0.69
22,VLAKLVFKPYKKGVISQ,inactive
23,GRMEGNRFIDRLLGLHTSSP,inactive
24,GFYTVFCIMQSAEGLDGTVW,1.26 ± 0.12

row,Substance,amyloid nucleation score
1,LEMGSGSHFSGDSWAHPLRG,inactive
2,EVQEKAEHHVLVGRVANPRF,inactive
3,FSLGVWSNPDWVRCSHWFIF,1.28 ± 0.14
4,KLPSEISKNYT,inactive
5,LPLVVIFQLSTYVRQWYA,0.618 ± 0.28
6,TYGGMSQSNLLRWCCFAWMY,inactive
7,RLDPLVDFANDLMTSYSR,inactive
8,TARYIW,inactive
9,PTAHYWSVRSRSIDPPACQW,inactive
10,FLLMCLMRCTRMETRCISAC,inactive
11,HVSSKASLLPMYRY,0.237 ± 0.75
12,SDIGVCSLKICSTIILVANM,inactive
13,FVVCSAM,inactive
14,AFVFATAITELVYCSCLNRP,2.04 ± 0.089
15,TLDLSHTMVCRLEYFSSAIG,inactive
16,DPSPGYLLSY,inactive
17,IDGTCFARIFRCCIFYLR,inactive
18,HNGDRVDY,inactive
19,RSKWRCRTLVDWRLQV,inactive
20,VGCLGGRSTSSRWSSLRLLV,inactive
21,VCTVQCFEKIEL,inactive
22,IFVLQGRKYSSTSWLITHHC,inactive
23,CTGSWMVTAERLARACHTRL,inactive
24,HSMQCNT,inactive

row,Substance,amyloid nucleation score
1,GQDEPDCVG,0.014 ± 0.52
2,SVSLLAFRDFALPDHTKHMT,inactive
3,YCLTLNHAMIRFGMCCHYMC,inactive
4,LTLISGIAFLCLLLDNHNTV,inactive
5,RGRRSCRARRYTTGAFHELL,inactive
6,YTKMGTRLAFFWIRMMMRGR,inactive
7,WCKVRYSTNMVTSTSATLVA,inactive
8,AMKSAW,inactive
9,VYFMCVQHWLVSGHPDPLNE,-0.246 ± 0.69
10,IYVVACGSR,inactive
11,MFFVRNFCQYVSRRC,1.83 ± 0.088
12,LSGDLVCRKVFTRRCTSKWL,inactive
13,SSPRGCKSELPSGLGTYCRV,inactive
14,MIGFYLILVGSHIRMYTGS,inactive
15,QRKFVVAVVSATILLFNTRE,inactive
16,WGICFVITYNIKIKYDHLMS,1.18 ± 0.081
17,NLSNLLNLVRLVRGRLGNAA,inactive
18,YDADRGEWLQLITSPDPFFY,inactive
19,HSYTWICVARLPHWFWTQCL,1.71 ± 0.075
20,FICHYEHKKVRHRVYAKAYI,inactive
